Measurements from PMC5225881, “Open and compressed conformations of Francisella tularensis ClpP” (Proteins, 2016).
Several values for one entry are separate records, joined by “and”; a condition that tells them apart may be missing. Identical values can stand only once.

Target: the molecule itself
Assay: native gel or EMSA; purified sample applied to a native gel; conditions not given

B1: Francisella tularensis caseinolytic protease catalytic subunit P (ClpP) (enzyme)
chain: not shown
notes: also called FtClpP; FtClpP:I; copies: 14
- stoichiometry N: 7 and 14
